Data taken from patent US11858972B2, “Micropeptides and uses thereof” (FUNDACIÓ PRIVADA INSTITUT D'INVESTIGACIÓ ONCOLÒGICA DE VALL …, priority 2018, dated 2024).

Experiments:
[1] = system: CDK inhibitors p27 and p21; assay: p27 and p21 expression by qPCR and Western Blot in BxPC-3; assay type: cell-based; settings: BxPC-3, doxycycline-induced expression
Description: (§1) FIG. 5. Micropeptide of sequence SEQ ID NO: 1 overexpression induces cell cycle arrest and cellular senescence. BxPC-3 cells were transduced with an inducible lentivirus coding HA-SEQ ID NO: 1. Micropeptide of sequence SEQ ID NO: 1 expression was induced by doxycycline treatment for 4 days. (A) Phase contrast images of SEQ ID NO:1-expressing cells and control cells. (B) Cell viability analysis by CellTiter-Glo assay. (C) Cell cycle analysis by flow cytometry. Left, histogram plots. Right, quantification of the number of cells in every cell cycle phase (D) Analysis of p27 and p21 expression by qPCR. (E) Western Blot of the indicated cells using anti-HA and anti-p21 antibodies. (F) Quantification of the number of SA-β-Gal positive cells in doxycycline-treated and untreated cells. (G) Representative pictures of the cell quantified in (F). Graphs show the mean±SEM, using at least 3 technical replicates. **P<0.01 ***P<0,001 **** P<0.0001, two-tailed t-test.
Total RNA was extracted with Trizol® and treated with TURBO™ DNase following provider's recommendations. 1 μg of RNA was retrotranscribed using iScript™ cDNA Synthesis Kit (BioRad). Gene expression was analysed by quantitative real time PCR using PowerUp SYBR Green Master Mix (Thermo Fisher Scientific) in the 7900HT Fast Real-Time PCR System (Applied Biosystems). Cycle threshold (Ct) values were normalized to GAPDH. […]

[2] = system: BxPC-3 pancreatic cancer cell line; assay: Cell cycle analysis by flow cytometry; assay type: cell-based; settings: BxPC-3, expression induced by doxycycline for 4 days
Description: as §1
(§2) Micropeptide of SEQ ID NO: 1 expression was induced in BxPC3 cells by treatment with doxycycline (2 μg/ml) for 4 days. Cells were fixed using 100% ethanol at 4° C., stained with Propidium Iodide, and cell cycle was analysed by flow cytometry (LSR-Fortessa cytometer). Cell viability in micropeptide of SEQ ID NO: 1-expressing cells was evaluated using CellTiter-Glo 2.0 (Promega) following manufacturer's instructions.

A549 cancer cells = assay: Invasion assay (Boyden chamber, Matrigel); assay type: cell-based, human; settings: A549, after 4 days of doxycycline induction, 24 h invasion
Method: (§3) FIG. 9. SEQ ID NO: 1 overexpression impairs invasiveness and reduces mesenchymal traits in A549 and H10 cell lines. Invasion of indicated cells was analyzed in matrigel-coated inserts. (A) The undersides of membrane inserts containing invaded cells were fixed and stained with crystal violet and photographed 24 h after plating. (B) Number of invasive cells was calculated using ImageJ software. Bars plots show relative number of cells invading the chamber. (C) Analysis of several mesenchymal genes by qPCR. mRNA expression is shown relative to the control. * P<0.05, **P<0.01 two-tailed t-test.
BxPC-3, MDA-MB-231, A549 and H10 cell lines were trypsinized, counted, and 20.000 cells/well were seeded in triplicate in a Corning® cell culture insert (Boyden chamber) in which the porous membrane is coated with a layer of Matrigel® to mimic an extra cellular matrix (ECM). Cells were allowed to invade through the coated membrane for 24 hours in the cell incubator at 37° C. After the incubation time, culture inserts were fixed in methanol 5 minutes at RT and stained using Crystal Violet 20 minutes at RT. The excess of Crystal Violet staining was removed washing with PBS and pictures of the chambers were taken using an Olympus CeIIR microscope. Invading cells were counted using ImageJ and fold change was calculated normalizing to the control.

H10 cells = assay: Cell cycle analysis by flow cytometry; assay type: cell-based
Description: (§4) FIG. 8. SEQ ID NO: 1 overexpression reduces cell proliferation. A549 and H10 cells were transduced with an inducible lentivirus coding HA-SEQ ID NO: 1. SEQ ID NO: 1 expression was induced by doxycycline treatment for 14 days. (A) Growth curve of transduced cells over 14 days of SEQ ID NO:1 expression. (B) Cell cycle analysis by flow cytometry. Left, histogram plots. Right, quantification of the number of cells in every cell cycle phase. Graphs show the mean±SD, using at least 3 technical replicates. **** P<0.0001, two-tailed t-test.
as §2

A549 cells = assay: Cell cycle analysis by flow cytometry; assay type: cell-based, human
Description: as §4, §2

[3] = system: EMT regulators VIMENTIN, SLUG, SNAIL, N-CADHERIN, TWIST1, TWIST2, ZEB1 and ZEB2; assay: Mesenchymal gene expression by qPCR in H10 SCC cell line; assay type: cell-based
Method: as §3
Total RNA was extracted with Trizol® and treated with TURBO™ DNase following provider's recommendations. 1 μg of RNA was retrotranscribed using iScript™ cDNA Synthesis Kit (BioRad). Gene expression was analysed by quantitative real time PCR using PowerUp SYBR Green Master Mix (Thermo Fisher Scientific) in the 7900HT Fast Real-Time PCR System (Applied Biosystems). Cycle threshold (Ct) values were normalized to GAPDH.

BxPC-3 infected cells = assay: Annexin V/PI assay; assay type: cell-based; settings: BxPC-3, SEQ ID NO: 1-Puromycin conditions
Method: FIG. 6. Micropeptide of sequence SEQ ID NO: 1 expression induces cell death upon cellularstress. SkBR-3, HPAF II, MIA PaCa-2 and BxPC-3 cells were infected with empty or SEQ ID NO: 1-HA retroviruses, and selected by puromycin. Micropeptide of sequence SEQ ID NO: 1 expression was analyzed by qPCR (A) and by Western blot (B). (C) Phase contrast images of the indicated cells 3 days after selection with puromycin. (D) Annexin-V/PI staining of BxPC-3 infected cells with and without puromycin treatment, analyzed by Flow Cytrometry. (E) BXPC-3 cells were infected with an inducible lentivirus encoding SEQ ID NO: 1-HA, and selected with Neomycin. Micropeptide of sequence SEQ ID NO: 1 expression was induced by doxycycline, and cells were treated with Doxorubicin or Actinomycin D. (E) Cell viability of the indicated cells measured by crystal violet staining.
After lentiviral infection and puromycin selection for 72 h, infected cells were washed twice with cold PBS and resuspended in Binding Buffer at a cell density of 1×10^6 cells/mL. Following manufacturer's instructions (BD Pharmingen™) 100 μL of cells were treated with 5 μL of Annexin V-FITC. After incubation for 15 min in the dark at room temperature, 400 ul of Binding Buffer was added and each sample was supplemented with 10 μL of Propidium Iodide. Flow cytometry analysis was performed on a LSR Fortessa cytometer.

B1: SEQ ID NO: 1: highly conserved 87 aa micropeptide coded by the lncRNA TINCR; predicted ubiquitin-like protein (protein, listed as Homo sapiens)
chain: MEGLRRGLSRWKRYHIKVHLADEALLLPLTVRPRDTLSDLRAQLVGQGVSSWKRAFYYNARRLDDHQTVRDARLQDGSVLLLVSDPR
[1]
  expression of the CDK inhibitors p27 and p21: upregulation
[2]
  cell cycle: induces cell cycle arrest in G1 phase
A549 cancer cells
  invasion: significant decrease in invasion
H10 cells
  cells arrested in G1 phase: increase in cells arrested in G1 phase
A549 cells
  cells arrested in G1 phase: increase in cells arrested in G1 phase
[3]
  expression of the EMT regulators VIMENTIN, SLUG, SNAIL, N-CADHERIN, TWIST1, TWIST2, ZEB1 and ZEB2: represses the expression
BxPC-3 infected cells
  percentage of early apoptotic cells: 22.4%
  percentage of late apoptotic cells: 58.6%
